# Measured values published in US20240376222A1 (University of Texas, published 2024).
# B1: 3H8 (antibody, V domains shown)
# VH: QVQLVQSGAEVKKPGESLRISCKGSGYSFTSYWISWVRQMPGKGLEWMGRIDPSDSYTNYSPSFQGHVTISADKSISTAYLQWSSLKASDTAMYYCARHPPRSTRGDYGMDVWGQGTMVTVSS
# VL: QAVVTQPPSVSGTPGQRVTISCSGSNSNIGSYIVNWYQQLPGTAPKLLIWGNDRRPSGVPDRVSASKSGTSASLAISGLQSEDEGDYYCAAWDNILNNYVFGPGTQLTVL
# notes: Human IgG1, converted from a phage scFv clone
# B2: VEGFA (VEGF165) (ligand, human, UniProt P15692-4 27-191, looked up)
# chain: APMAEGGGQNHHEVVKFMDVYQRSYCHPIETLVDIFQEYPDEIEYIFKPSCVPLMRCGGCCNDEGLECVPTEESNITMQIMRIKPHQGQHIGEMSFLQHNKCECRPKKDRARQENPCGPCSERRKHLFVQDPQTCKCSCKNTDSRCKARQLELNERTCRCDKPRR
# notes: also called VEGF165A; human VEGFA
# B3: VEGF-Trap (Fc fusion, UniProt P17948 129-230, looked up)
# chain: SDTGRPFVEMYSEIPEIIHMTEGRELVIPCRVTSPNITVTLKKFPLDTLIPDGKRIIWDSRKGFIISNATYKEIGLLTCEATVNGHLYKTNYLTHRQTNTIIDVVLSPSHGIELSVGEKLVLNCTARTELNVGIDFNWEYPSSKHQHKKLVNRDLKTQSGSEMKKFLSTLTIDGVTRSDQGLYTCAASSGLMTKKNSTFVRVHEK
# notes: domain: D2 domain;domain: D3 domain; Designed on aflibercept; also called VEGF-Trap positive control; not shown: human Fc fragment
# Tests used:
# [1] = molecular target: T1, human TfR extracellular domain (ECD) (human, UniProt P02786 89-760); assay: phage ELISA, scFv phage on coated TfR, anti-M13-HRP, single point
# T1 construct: extracellular domain; Bought protein; also called HuTfR; huTfR
# T1 sequence (P02786 89-760): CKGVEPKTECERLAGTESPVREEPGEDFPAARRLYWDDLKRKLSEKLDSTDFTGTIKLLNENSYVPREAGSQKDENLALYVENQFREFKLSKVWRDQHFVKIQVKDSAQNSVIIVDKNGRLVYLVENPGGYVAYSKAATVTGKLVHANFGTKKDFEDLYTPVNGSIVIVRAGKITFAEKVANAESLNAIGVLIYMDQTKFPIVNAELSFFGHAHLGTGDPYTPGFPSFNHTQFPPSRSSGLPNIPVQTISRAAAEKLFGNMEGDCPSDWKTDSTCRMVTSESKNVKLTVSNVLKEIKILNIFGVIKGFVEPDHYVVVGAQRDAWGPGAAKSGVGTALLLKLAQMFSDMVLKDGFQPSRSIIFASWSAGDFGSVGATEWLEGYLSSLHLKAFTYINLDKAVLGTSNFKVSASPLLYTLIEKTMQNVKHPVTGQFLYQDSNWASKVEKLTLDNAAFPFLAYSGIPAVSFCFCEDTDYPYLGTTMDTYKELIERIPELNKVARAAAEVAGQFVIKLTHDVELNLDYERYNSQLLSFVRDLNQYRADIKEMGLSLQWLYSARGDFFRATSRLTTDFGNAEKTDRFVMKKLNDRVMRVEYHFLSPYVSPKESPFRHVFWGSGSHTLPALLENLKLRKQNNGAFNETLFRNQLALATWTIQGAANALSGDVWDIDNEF
# [2] = molecular target: T2, muTfR extracellular domain (ECD), His-tagged (mouse, UniProt Q62351 89-763); assay: BLI, biotinylated VEGFA on streptavidin sensors, no antibody, then muTfR ECD
# T2 construct: extracellular domain; Bought protein (Sino Biological); also called muTfR-His; muTfR ECD
# T2 sequence (Q62351 89-763): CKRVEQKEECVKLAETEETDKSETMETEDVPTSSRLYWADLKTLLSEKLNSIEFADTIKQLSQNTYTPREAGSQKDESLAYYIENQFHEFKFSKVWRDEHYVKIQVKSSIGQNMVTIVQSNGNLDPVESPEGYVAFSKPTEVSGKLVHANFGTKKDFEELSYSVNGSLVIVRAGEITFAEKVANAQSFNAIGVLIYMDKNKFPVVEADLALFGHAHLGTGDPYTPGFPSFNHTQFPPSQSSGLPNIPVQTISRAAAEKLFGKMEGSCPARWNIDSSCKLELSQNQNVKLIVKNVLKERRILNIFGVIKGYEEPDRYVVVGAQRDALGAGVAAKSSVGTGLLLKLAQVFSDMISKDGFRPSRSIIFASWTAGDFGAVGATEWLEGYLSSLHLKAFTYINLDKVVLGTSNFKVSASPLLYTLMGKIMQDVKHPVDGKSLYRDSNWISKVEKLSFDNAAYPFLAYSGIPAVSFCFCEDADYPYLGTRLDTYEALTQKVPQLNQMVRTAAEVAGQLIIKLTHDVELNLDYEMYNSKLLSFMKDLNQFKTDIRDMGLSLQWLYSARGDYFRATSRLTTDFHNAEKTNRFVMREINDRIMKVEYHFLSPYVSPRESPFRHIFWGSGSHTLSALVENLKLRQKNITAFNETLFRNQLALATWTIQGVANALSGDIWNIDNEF
# Procedure: To characterize the bispecific antibodies a BLI-based sandwich capture assay. The bispecific antibodies were first captured onto sensors via VEGF165A. After equilibrium in blank buffer, the sensor-captured bispecific antibodies were then incubated with muTfR ECD. The VEGF-Trap/TfR bispecific antibodies were shown simultaneously binding to both VEGF165 and TfR. To further validate the antigen binding, we introduced another three control groups that missed one of the three binding partners (VEGFA, Ab, or TfR). […] Finally, the flat curves without TfR confirmed the observed binding signals in curves A and E were antibodies binding to TfR.
# Streptavidin sensors (Fortebio) were used to capture biotinylated VEGFA proteins (Sino Biological). During all incubation steps, samples were kept at room temperature with 1000 rpm shaking. In the VEGFA loading step, 100 nM biotinylated VEGFA proteins were incubated with the sensors for the designated time. In the bispecific antibody interaction steps, 200 nM antibodies were used. In the muTfR incubation step, 100 nM muTfR-His (Sino Biological) were used. Between incubations, the sensors were dipped into blank kinetic buffers to allow the free dissociation of proteins.
# [3] = molecular target: T2, muTfR extracellular domain (ECD), …; assay: competition ELISA on coated muTfR-His against 1 nM biotinylated Ab4, streptavidin-HRP
# Procedure: High-binding ELISA plates (Corning) were coated with muTfR-His at 2 μg/mL overnight at 4° C. After blocking with 1% BSA PBS, individual antibodies (at designated concentrations) and 1 nM biotinylated TfR Ab4 in 1% BSA PBS were incubated with coated muTfR for 2 hours at room temperature. After washing with PBS+0.05% Tween-20, streptavidin-HRP (Jackson ImmunoResearch) was added at 1:5000 concentration and incubated for 1 hour at room temperature. After washing with PBS+0.05% Tween-20, TMB substrate (Thermo Fisher Scientific) was added and incubated for 5 min before being stopped by 1N H₂SO₄. OD values were read at 450 nm.
binder,measurement,setting,value
B1,binding result,[1],binds
B2,binding result,[2],no binding (tested: 100 nM muTfR-His)
B3,binding result,[3],no binding
